The RNAGym collection of RNA variant scans (doi:10.1073/pnas.2313332121)

B1: TPR t1 (parent)
chain: GACCAAUCUGCCCUCAGAGCUCGAGAACAUCUUCGGAUGCAGAGGAGGCAGGCUUCGGUGGCGCGAUAGCGCCAACGUCCUCAACCUCCAAUGCAUCCCACCACAUGAUGAUGCCUGAAGAGCCUUGGUUUUUUG

Variants of: B1
Assay: polymerase ribozyme fitness, log enrichment relative to wild type (log ratio); higher = more active; in vitro selection for triplet polymerase activity
Outline: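 To select mutant libraries of each subunit of a heterodimeric triplet polymerase ribozyme, built by PCR and transcribed, each was annealed with a biotinylated primer, partner subunit and triplets, then incubated frozen at −7 °C. Extended constructs were gel-excised, captured on streptavidin beads and amplified by RT-PCR, in one round carried out in triplicate. Illumina sequencing of input and output libraries kept genotypes with ≥10 input reads and ≥1 read per output. Fitness is the base-2 logarithm of genotype enrichment relative to wild-type enrichment, from inverse-variance-weighted replicate averages.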

| Variant | polymerase ribozyme fitness (log ratio) |
| --- | --- |
| C13G A37U C53A C79A U87C U129C | -5.34 |
| C13U G71C | -0.732 |
| C12U U38G C62U C76U C79A | -1.79 |
| C13U C20G | -4.55 |
| C13G G25C C49A C98U U112A C115G | -7.45 |
| U14A A50G | -2.52 |
| C13G U14A C64U C86A | -3.76 |
| C13U A37U G42U G63U C85U U112A | -3.9 |
| U14A A24G A119G | -4.72 |
| C13U G69C | -1.26 |
| C13U U92A | -2.13 |
| C13U A50G G52A G69A G77U | -2.68 |
| C13G U87C A121C | 0.326 |
| C13U A29U C56A G65A G77A | -6.34 |
| C13G C28G U96A | -4.5 |
| C12U U55G U59C U133A | -0.128 |
| C13A U130A | -2.56 |
| C13U G61C A100U A111G G113A | -5.12 |
| C13U C62U | -0.0202 |
| C13G A29G G42A | -5.99 |
| C12U U106A | 0.462 |
| C13U G44U A50G C53U C56U G93U C124G | -1.13 |
| C13U U132C | 0.0693 |
| C13G G17C A75U U87G U96A C104U | -5.5 |

| Variant | polymerase ribozyme fitness (log ratio) |
| --- | --- |
| C13U A50G C70U C79U C86G G117A | -2.99 |
| C13G C85U C88A C102A A105G C124U | -6.67 |
| C13U C53A C72A A103U G127U | -5.25 |
| C13A C15G U106A G117C | -0.827 |
| C13U C70A A121G | 0.554 |
| C13U U131A | -0.274 |
| C13U C98U | -1.1 |
| C13U C56G G58C | -0.174 |
| C13A G45A G113U G117C | -6.5 |
| C13A U78G C88A A105U | -4.55 |
| C13G G60C G77U C101A G120C | -1.78 |
| C13A C56U C80A | -2.82 |
| C12U U21G C62G A74C U78A | -3.33 |
| C13G G17A U55G | -5.5 |
| C13U A16U C56U U129G | -0.207 |
| C13U A29G G52A C102U | -4.34 |
| C13A A18G | -3.1 |
| C13U A37C C40A C73A G93A G117U | -3.4 |
| C13A C88U | -2.04 |
| C13A G71A A90G | -2.51 |
| C13U U14G C80U C115A | -3.73 |
| C13G A41C A50U U133A | -4.37 |
| C13U A18G G36A G48U C72U A118U | -6.03 |
| C13U A50G C85G C123G | -0.185 |

| Variant | polymerase ribozyme fitness (log ratio) |
| --- | --- |
| C13A C40U C88U C101A U112A | -2.49 |
| C13U U30C A46U C73U | -5.98 |
| C13U C49G A50U G58A A95G C114G | -5.63 |
| C13G C94U | -1.78 |
| C13U A41G G60U | -0.254 |
| C13G G71C U125A G128C | -3.83 |
| C13G C15A | -2.5 |
| C13G C15U | -2.51 |
| C13U C62U C85A U106A | -1.41 |
| C13A C49U G51U G69U A111U G120A | -6.99 |
| C12U U32C G69U C76G G77U C80U A84G | -4.98 |
| C13A G48A U96A | -2.1 |
| C12U G122U | 1.06 |
| C13G C34A | -4.26 |
| C13G G61A | -1.99 |
| C13G G61C | -2.94 |
| C12U G110U | -0.322 |
| C13A G71U A74G U109A | -6.36 |
| C13A A41U G57U | -3.67 |
| C13A A27U A43U G57C | -4.33 |
| C13A G19C G69U G110U U112C | -5.05 |
| C13G C79U | -2.23 |
| C13G A16U C82A C89G | -4.33 |
| C13A G69U C73G | -5.01 |

| Variant | polymerase ribozyme fitness (log ratio) |
| --- | --- |
| C13A G42C A66C C99U C101U C114U G127U | -6.24 |
| C13G U112G | -0.767 |
| C13G C85A U112C | -1.28 |
| C13U A46U U130G | -2 |
| C13U C20U U106A G120A | -1.72 |
| C13U G51U C79G G127A | -2.92 |
| C13G U59C C124A | 1.58 |
| C13U G39U G44U | -1.24 |
| C13A C49U U87G C123A U131G | -0.403 |
| C13A A16U G71C G120C | -0.814 |
| C13U C115A | -0.378 |
| C13U A41G C49A G52U | -1.15 |
| C13A C28G C34A A84C G110C | -1.53 |
| C13A G36A G52U C97U A111C | -2.68 |
| C13G G35C G47A C80U A105C G107U G117A | -7.66 |
| C13A C79G | -3.47 |
| C13U C88U | 0.907 |
| C13U G17U C31U U106A C115U | -1.65 |
| C12U U14A | -2.23 |
| C13G A18G | -5.42 |
| C13U G42U C56U C73U C114G C123A | -2.2 |
| C13G C22G C53U G60A U92C A118U | -5.33 |
| C13G A41U C97U | -3.81 |
| C13U G44U G58A U59A G61A C62U | -2.38 |

| Variant | polymerase ribozyme fitness (log ratio) |
| --- | --- |
| C13G A66U C114A | -4.3 |
| C13A G63A A74C G128A | -5.18 |
| C13U G17A C123A | 0.664 |
| C12U G63C C82U A103C | -6.59 |
| C13U C15A G60A G113C G135U | -7.27 |
| C13A U81A | -3.27 |
| C13U A26U G69C | -4.28 |
| C13A A83U | -2.07 |
| C13G G51A C97U A111G U129A | -6.21 |
| C13U G35A G45A U87G | -4.53 |
| C13U A37G C101U | -0.644 |
| C12U U59G | 0.247 |
| C13G A24G A27G C56G A111C | -7.83 |
| C13G G117U | -4 |
| C13G C85G C86A | -3.16 |
| C12U G61C C94U | -0.805 |
| C12U U14G C15G G61A C88U U129C | -1.38 |
| C12U U38G C72G | -0.666 |
| C13G C85G U112A G120C | -1.17 |
| C13U C15U U59A A84C A90C U106G U130A | -4.77 |
| C13U C85U | -1.48 |
| C13U A50U C88G U112A G117A | -2.57 |
| C13G A50U | -3.13 |
| C13U G52C C62U C94G A100U G113A | -3 |

| Variant | polymerase ribozyme fitness (log ratio) |
| --- | --- |
| C13U C82G C99U | -3.96 |
| C13G A26G C49A U96A | -5.63 |
| C13A A41U G45C C82A | -4.65 |
| C13G G71A | -2.22 |
| C13G G71C | -3.5 |
| C13G C40G | -0.654 |
| C13G C20U G93A C124A | -1.04 |
| C13A G48A | -2.23 |
| C13G C15U G58C | -3.58 |
| C13G C94A C101G C123G | -1.76 |
| C13G C53G G63C | -2.03 |
| C13U G39A C70A C104U | -1.43 |
| C13G G17C U112G U116G | -4.51 |
| C13G C53U | -1.87 |
| C13G C53A G69U C79A G120C | -0.403 |
| C13U A46C | 0.0656 |
| C12U U129A | -0.808 |
| C13U C53A U92G C101U | -1.94 |
| C13G G63C | -1.92 |
| C13G G63U | -2.53 |
| C13G G63A | -2.24 |
| C13A A74G C86A C101G | -4.34 |
| C13U G60A A100U C101U C104U A121C | 1.93 |
| C13A U14G G42A A84U | -3.34 |

| Variant | polymerase ribozyme fitness (log ratio) |
| --- | --- |
| C13U C20U G44U G47U | -3.8 |
| C13U U14C G48U | -3.25 |
| C13U C15G A18U A66U | -5.7 |
| U14A C40U C64U A91U | -4.67 |
| C13G G51C G69U U78G | -2.43 |
| C13U A27G G47A C64U | -3.03 |
| C13A C53U | -2 |
| C13G C73U A91C | -2.89 |
| C13U C64U A74U C82G | -1.47 |
| C13G C40A U133A | -2.76 |
| C13G C79A G113A | -3.53 |
| C13G G42U C49U G61U | -3.55 |
| C13G C15G A26U C94A C114U | -6.55 |
| C13U G113A | 0.0113 |
| C13A C56A | -1.3 |
| C13A C56G | -2.27 |
| C13G C56G C86G C98A C101A C102U G113A | -6.46 |
| C13G C22U G113A | -4.71 |
| C13U C72U U129G | -0.856 |
| C13G C15U G120A | -2.44 |
| C13G G47U C114A | -4.31 |
| C13U A18G C49G G77U | -4.43 |
| C13U A18G A46C U96C A100C C123G | -4.57 |
